For assay [1], the target named is hFcγR2A 167R (human) (UniProt P12318). Put plainly: BLI, Hu Fc2A 167R. In general terms: BLI is a label-free optical method that tracks binding on a fibre tip over time.
Assay [2] deals with human FcγR1 (hFcγR1) (human) (UniProt P12314). Put plainly: BLI, Hu Fc1.
The target in assay [3] is hFcγR2B (human) (UniProt P31994). Put plainly: BLI, Hu Fc2B.
For a further assay, the target named is Hu Fc3A 176F. Put plainly: BLI, Hu Fc3A 176F.
The target in assay [4] is hFcγR2A 167H (human) (UniProt P12318). Put plainly: BLI, Hu Fc2A 167H.
The next assay concerns the target hFcγR3A 176V (human) (UniProt P08637). Put plainly: BLI, Hu Fc3A 176V.
The target of assay [5] is cynomolgus FcγRI (cyno FcγR1) (cynomolgus). Put plainly: BLI, His-cyno FcR1.
In assay [6] the target is hFcγR2A 167H (human) (UniProt P12318). Put plainly: BLI, Bio hFcR2A 167H.
The target of assay [7] is human FcγR1 (hFcγR1) (human) (UniProt P12314). Put plainly: BLI, Bio-hFcR1.
Assay [8] deals with hFcγR2B (human) (UniProt P31994). Put plainly: BLI, Bio-hFcR2B.
The target of assay [9] is human FcγR1 (hFcγR1) (human) (UniProt P12314). Put plainly: BLI, His-hFcR1.
The target of assay [10] is hFcγR2A 167R (human) (UniProt P12318). Put plainly: BLI, Bio-hFcR2A 167R.
Assay [11] deals with human FcγR1 (hFcγR1) (human) (UniProt P12314). Put plainly: BLI, FcR1, 50nM IgG.
The target in assay [12] is hFcγR2A 167R (human) (UniProt P12318). Put plainly: BLI, FcR2A 167R, 600nM IgG.
For assay [13], the target named is hFcγR2B (human) (UniProt P31994). Put plainly: BLI, FcR2B, 450nM IgG.
Assay [14] deals with hFcγR3B (human) (UniProt O75015). Put plainly: BLI, FcR3B, 450nM IgG.
Assay [15] has the same target. Put plainly: BLI, FcR3B, 600nM IgG.
Assay [16] has as its target hFcγR2A 167R (human) (UniProt P12318). Put plainly: BLI, FcR2A 167R, 450nM IgG.
For assay [17], the target named is human FcγR1 (hFcγR1) (human) (UniProt P12314). Put plainly: BLI, FcR1, 25nM IgG.
Assay [18] deals with hFcγR2A 167H (human) (UniProt P12318). Put plainly: BLI, FcR2A 167H, 450nM IgG.
Assay [19] has as its target human FcγR1 (hFcγR1) (human) (UniProt P12314). Put plainly: BLI, FcR1, 10nM IgG.
In assay [20] the target is hFcγR2A 167H (human) (UniProt P12318). Put plainly: BLI, FcR2A 167H, 600nM IgG.
The target in assay [21] is hFcγR2B (human) (UniProt P31994). Put plainly: BLI, FcR2B, 600nM IgG.

Hu Fc3A 176F, sequence (chain, as listed by the source limits assumed): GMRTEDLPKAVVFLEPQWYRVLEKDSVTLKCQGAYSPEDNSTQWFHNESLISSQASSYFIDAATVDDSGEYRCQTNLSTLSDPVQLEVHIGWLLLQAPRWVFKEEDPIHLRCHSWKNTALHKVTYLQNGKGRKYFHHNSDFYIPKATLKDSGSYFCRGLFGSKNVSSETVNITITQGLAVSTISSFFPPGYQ
hFcγR2A 167H (human), sequence (P12318 36-218): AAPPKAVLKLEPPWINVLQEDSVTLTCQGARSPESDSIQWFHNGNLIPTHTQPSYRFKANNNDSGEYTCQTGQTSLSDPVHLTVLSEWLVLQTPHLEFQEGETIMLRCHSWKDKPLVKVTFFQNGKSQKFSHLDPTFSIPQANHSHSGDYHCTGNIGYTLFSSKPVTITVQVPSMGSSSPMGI
cynomolgus FcγRI (cyno FcγR1) (cynomolgus), sequence (A0A2K5 entry or part of it limits assumed): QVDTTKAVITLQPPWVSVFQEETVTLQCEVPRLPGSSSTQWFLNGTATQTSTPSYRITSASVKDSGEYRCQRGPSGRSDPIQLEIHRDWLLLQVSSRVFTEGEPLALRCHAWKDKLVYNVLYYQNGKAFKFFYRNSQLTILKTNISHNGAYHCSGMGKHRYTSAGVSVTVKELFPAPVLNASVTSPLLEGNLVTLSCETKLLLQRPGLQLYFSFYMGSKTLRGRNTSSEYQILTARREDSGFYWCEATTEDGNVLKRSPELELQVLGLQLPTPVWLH
human FcγR1 (hFcγR1) (human), sequence (P12314 16-288 limits assumed): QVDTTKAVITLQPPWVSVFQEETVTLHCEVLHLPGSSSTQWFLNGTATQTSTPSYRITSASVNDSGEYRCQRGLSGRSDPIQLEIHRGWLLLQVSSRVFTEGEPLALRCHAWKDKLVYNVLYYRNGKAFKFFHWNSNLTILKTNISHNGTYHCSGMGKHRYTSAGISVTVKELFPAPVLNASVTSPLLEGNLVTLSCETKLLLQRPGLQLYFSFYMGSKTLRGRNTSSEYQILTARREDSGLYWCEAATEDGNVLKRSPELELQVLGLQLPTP
hFcγR2A 167R (human), sequence (P12318 36-218 H167R): as the sequence (P12318 36-218) above, with H132R counted along it
hFcγR2B (human), sequence (P31994 46-217): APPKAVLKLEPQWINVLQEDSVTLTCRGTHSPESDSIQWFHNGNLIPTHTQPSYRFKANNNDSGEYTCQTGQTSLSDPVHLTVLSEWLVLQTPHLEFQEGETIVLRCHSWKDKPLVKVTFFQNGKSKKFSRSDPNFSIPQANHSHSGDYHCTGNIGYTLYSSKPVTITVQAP
hFcγR3B (human), sequence (O75015 17-200 limits assumed): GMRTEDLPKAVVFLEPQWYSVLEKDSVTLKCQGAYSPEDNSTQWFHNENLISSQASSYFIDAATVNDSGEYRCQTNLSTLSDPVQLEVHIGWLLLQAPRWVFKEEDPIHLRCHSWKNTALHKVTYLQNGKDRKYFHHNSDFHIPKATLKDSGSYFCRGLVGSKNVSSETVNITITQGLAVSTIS
hFcγR3A 176V (human), sequence (P08637 17-208 F176V limits assumed): as the sequence (chain, as listed by the source limits assumed) above, with F160V counted along it

On to Ab5 LALA.P329G (antibody), for which the normalized binding response with hFcγR2A 167R (human) [1] is 2 % of WT.

Take YTH24.5 (anti-CD45 rIgG2b) (antibody): the normalized binding response in [2] was 121 % of WT; with hFcγR2B (human) [3], 120 % of WT; with hFcγR2A 167R (human) [1] it was 56 % of WT; with Hu Fc3A 176F it was 62 % of WT; with hFcγR2A 167H (human) [4] it was 150 % of WT.

Turning to Ab5 CH2 deleted (antibody), in the assay with hFcγR2B (human) [3], the normalized binding response was 1 % of WT.

Regarding Ab5 (anti-CD45 antibody) LALA variant, the normalized binding response in the assay with hFcγR2B (human) [3] was 3 % of WT; with hFcγR2A 167R (human) [1], 2 % of WT; with Hu Fc3A 176F, 19 % of WT; in the assay with hFcγR2A 167H (human) [4], 4 % of WT; in the assay with hFcγR3A 176V (human) it was 34 % of WT.

In the case of “Ab5 (anti-CD45 antibody) D265C.N297A.H435A variant”, in the assay with hFcγR2B (human) [3], the normalized binding response is 2 % of WT.

With Ab2 D265C N297Q H435A (antibody), in assay [5], the Normalized Response was 7 % of WT.

In the case of Ab5 D265C.LALA.P329G.H435A (antibody), the normalized binding response in assay [2] was 4 % of WT; with Hu Fc3A 176F, 1 % of WT.

Turning to Ab5 D265A.H435A (antibody), the normalized binding response is 35 % of WT in assay [2], 1 % of WT in the assay with hFcγR2B (human) [3] and 3 % of WT with hFcγR2A 167H (human) [4].

Turning to Isotype WT (antibody), the Normalized Response with hFcγR2A 167H (human) [6] was 90 % of WT; in assay [7], 91 % of WT; with hFcγR2B (human) [8] it was 95 % of WT; in [9], 85 % of WT; in [5], 82 % of WT; with hFcγR2A 167R (human) [10], 102 % of WT.

Consider “rIgG2a (rat IgG2a isotype control) (antibody)”, for which the normalized binding response with hFcγR2B (human) [3] was 8 % of WT; with hFcγR2A 167R (human) [1], 74 % of WT; in the assay with Hu Fc3A 176F it was 1 % of WT; with hFcγR2A 167H (human) [4], 3 % of WT.

For the substance Ab5 D265C.H435A (antibody), the values for the normalized binding response (in assay [2]; with hFcγR2B (human) [3]) were 33 % of WT and 3 % of WT, respectively.

In the case of Ab2 D265C N297Q (antibody), the Normalized Response in assay [5] was 7 % of WT.

Take Ab5 (anti-CD45 antibody) D265A variant: the normalized binding response in assay [2] was 40 % of WT; with hFcγR2B (human) [3], 2 % of WT; in the assay with hFcγR2A 167H (human) [4], 2 % of WT.

For Ab5 EPLVLAdelG (antibody), the normalized binding response in [2] is 1 % of WT; with hFcγR2B (human) [3], 10 % of WT; with hFcγR2A 167R (human) [1] it was 15 % of WT; in the assay with Hu Fc3A 176F, 9 % of WT; with hFcγR2A 167H (human) [4], 66 % of WT; with hFcγR3A 176V (human) it was 16 % of WT.

“naked (un-conjugated) antibody (i.e., the isotype control) of FIGS. 1D and 1E”: the % Binding vs Wild Type hIgG1 (in assay [11]; in the assay with hFcγR2A 167R (human) [12]; with hFcγR2B (human) [13]; with hFcγR3B (human) [14]; in the assay with hFcγR3B (human) [15]; in the assay with hFcγR2A 167R (human) [16]) was 100% each time. Moreover, the % Binding vs Wild Type hIgG1 (in [17]; with hFcγR2A 167H (human) [18]; in assay [19]; with hFcγR2A 167H (human) [20]; with hFcγR2B (human) [21]) was 100% in each case.

Regarding Ab5 LALA.P331G (antibody), the figures for the normalized binding response with hFcγR2B (human) [3] and in the assay with hFcγR2A 167R (human) [1] were 8 % of WT and 1 % of WT, respectively.
